The target in assay [1] is endophilin SH3 (SH3G2_HUMAN), Q99962. Description: SPOT array.
In assay [2] the target is T1, amphyphisin SH3 (AMPH_HUMAN), P49418.
T1 chain: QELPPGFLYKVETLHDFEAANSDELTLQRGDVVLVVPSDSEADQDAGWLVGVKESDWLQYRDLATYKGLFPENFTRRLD
The assay is described as follows: SPOT array.

As to HPDLLRRPGARSTS [Q9BXK1 213-226], the figures for the normalised SPOT signal, Boehringer light units (BLU); mean over the file's lines of this peptide in assay [1] and in assay [2] were 0.2 and 29.9, respectively.
For ISPEFKRPRDIAVD [Q9NZR2 3964-3977], the normalised SPOT signal, Boehringer light units (BLU); mean over the file's lines of this peptide in assay [1] was found to be 14.9; in assay [2], 30.4.
For IEEVPPRPPSPPKK [Q16348 18-32] the same measures were 4240 and 225.
In the same order, the values of IEPQIRRPRSLSSP [O43165 457-470] are 365 and 113.
For HTKNLLRPTKLNLQ [Q9BXU7 768-781] the same measures were 61.7 and 110.
With ISQKIKRPANSGEL [Q9H4G7 129-142], the figures for the normalised SPOT signal, Boehringer light units (BLU); mean over the file's lines of this peptide in assay [1] and in assay [2] were 24.2 and 45.6, respectively.
HVQSPEKPPTSPRE [BAC05287 132-146]: the figures for the normalised SPOT signal, Boehringer light units (BLU); mean over the file's lines of this peptide in assay [1] and in assay [2] were 49.6 and 49.7, respectively.
For ALPSPLRPPAPPLP [Q9NR83 285-299], the normalised SPOT signal, Boehringer light units (BLU); mean over the file's lines of this peptide turned out to be 1950 in assay [1] and 299 in assay [2].
With IDEALLRPGRLEVK [P46459 379-392], the figures for the normalised SPOT signal, Boehringer light units (BLU); mean over the file's lines of this peptide in assay [1] and in assay [2] were 0 and 370, respectively.
Turning to ALQPPRRPKSSNPF [Q9Y6N1 67-80], the normalised SPOT signal, Boehringer light units (BLU); mean over the file's lines of this peptide in assay [1] amounted to 22500; in assay [2], 140.
For HTVELRRPSSDMEG [O14791 6-19] the same measures were 27.4 and 50.5.
HSTGINRPKRTGSL [P28749 775-788]: the values for the normalised SPOT signal, Boehringer light units (BLU); mean over the file's lines of this peptide in assay [1] and in assay [2] were 224 and 2890, respectively.
For IFVAPKRPSPLPRA [Q9NZP6 64-77] the same measures were 7170 and 4170.
With HQEKPERPLRGGKS [Q9NWA6 173-186], the normalised SPOT signal, Boehringer light units (BLU); mean over the file's lines of this peptide in assay [1] came to 2060; in assay [2] it was 9960.
As to IFMYLRRPTEESVE [Q96RC0 189-202], the normalised SPOT signal, Boehringer light units (BLU); mean over the file's lines of this peptide in assay [1] amounted to 165; in assay [2], 111.
For HVFQFTRPPRETPT [O75354 116-129] the same measures were 171 and 4870.
As for ISTKLVRPKRKHGT [P42679 203-216], the normalised SPOT signal, Boehringer light units (BLU); mean over the file's lines of this peptide came out at 97.8 in assay [1] and 2410 in assay [2].
For the molecule IFGPLKRPIVEFSL [Q9NW13 566-579], the figures for the normalised SPOT signal, Boehringer light units (BLU); mean over the file's lines of this peptide in assay [1] and in assay [2] were 61.9 and 27.1, respectively.
For HSFLINRPGKVKYM [Q9H5T1 190-203] the same measures were 117 and 202.
For IDPAILRPGRPDQL [Q9HAP0 257-270] the same measures were 169 and 220.
For HRSHLRRPAAPPSP [Q8WWE0 14-27] the same measures were 55.2 and 58.
As for AAPEPKRPHIAQVP [Q9Y6X8 414-427], the normalised SPOT signal, Boehringer light units (BLU); mean over the file's lines of this peptide is 108 in assay [1] and 7.5 in assay [2].
For ALPRPLRPPLPPDP [O43763 237-251] the same measures were 3470 and 553.
For HPGKPERPPPQGGN [P10163 94-108] the same measures were 794 and 57.4.
For ISHLPSRPVKPNII [Q9BZQ1 159-172] the same measures were 120 and 97.4.
As for IDPALLRPGRLDKS [O43933 989-1002], the normalised SPOT signal, Boehringer light units (BLU); mean over the file's lines of this peptide was 0 in assay [1] and 619 in assay [2].
With IDPALRRPGRFDRE [Q96IW6 580-593], the normalised SPOT signal, Boehringer light units (BLU); mean over the file's lines of this peptide in assay [1] is 108; in assay [2] it was 314.
On to HPLVPKRPDASFMA [P54368 201-214], for which the normalised SPOT signal, Boehringer light units (BLU); mean over the file's lines of this peptide in assay [1] is 1970; in assay [2] it was 125.
As to IAWGLRRPIRLQMQ [Q9H2L5 59-72], the normalised SPOT signal, Boehringer light units (BLU); mean over the file's lines of this peptide in assay [1] worked out at 846; in assay [2], 489.
Consider IAEALSRPGREASL [O15069 1001-1014], for which the normalised SPOT signal, Boehringer light units (BLU); mean over the file's lines of this peptide in assay [1] was 142; in assay [2], 932.
For IFDGIQRPLKDINE [P38607 97-110] the same measures were 127 and 81.7.
For IFSTLKRPQVETKT [Q96NM3 19-32] the same measures were 36.9 and 39.7.
As for HPEFLSRPIKPSPP [P17812 526-539], the results for the normalised SPOT signal, Boehringer light units (BLU); mean over the file's lines of this peptide in assay [1] and in assay [2] were 45.5 and 75.1, respectively.
For HTAEFRRPMATGDT [Q9H6N9 66-79] the same measures were 18.7 and 45.7.
For IDPAILRPGRLDKT [O15381 730-743] the same measures were 225 and 317.
As to IDPAILRPGRLDQL [P55072 629-642], the normalised SPOT signal, Boehringer light units (BLU); mean over the file's lines of this peptide in assay [1] stood at 87; in assay [2], 304.
For HYLVPVRPRRQIVY [Q9Y4V7 156-169] the same measures were 3150 and 5140.
In the same order, the values of HLWQPKRPAVPKKA [Q96FM3 493-506] are 816 and 17.3.

The record behind these values is publication PMC314469, “Protein Interaction Networks by Proteome Peptide Scanning” (PLoS Biology, 2004).
